Results: patent publication US20250163181A1 (SAINT LOUIS UNIVERSITY, published 2025)
Each block holds one binder with its values, some of them ahead of it.

Key:
[1] = biological target: T1, kringle-2 of human prothrombin (amino acids 156-271) (human, UniProt P00734 199-314); test: ELISA, immobilised antigen, 5B10 titrated, OD at 450 nm [panel B]
T1 construct: range 156-271; Numbers count on the mature protein

[2] = biological target: T2, prothrombin variant S91A/Y93A (human, UniProt P00734 44-622, S91A; Y93A); test: ELISA, antigen immobilised, Hill fit
T2 construct: range 1-579; Recombinant, expressed in Expi293 cells in the presence of vitamin K. Positions 91 and 93 count on the mature protein; also called ProTS91A/Y93A

[3] = biological target: T3, kringle-1 of human prothrombin (amino acids 44-155) (human, UniProt P00734 87-198); test: ELISA, antigen immobilised, Hill fit
T3 construct: Numbers count on the mature protein

[4] = biological target: T4, human prothrombin wild-type (human, UniProt P00734 44-622); test: ELISA, antigen immobilised, Hill fit
T4 construct: range 1-579; Residue numbers count on the mature protein, not on the precursor entry; In some runs 200 uM argatroban was added to force the open form; also called coagulation factor II; PT

[5] = biological target: T3, kringle-1 of human prothrombin (amino …); test: SPR, calculated from Kd
[6] = biological target: T4, human prothrombin wild-type; test: SPR, calculated from Kd
[7] = biological target: T4, human prothrombin wild-type; test: SPR, calculated from Kd; prothrombin with 200 µM argatroban
plasminogen = plasminogen (UniProt P00747 20-810, limits assumed); test: ELISA, antigen coated on the plate, POmAb detected with anti-mouse IgG (gamma)-HRP and TMB, OD at 450 nm [panel C]
[8] = biological target: T1, kringle-2 of human prothrombin (amino …); test: as above
[9] = biological target: tissue plasminogen activator (UniProt P00750 36-562); test: as above
factor XII = biological target: T5, factor XII (UniProt P00748 20-615); test: as above
T5 construct: also called FXII
T5 sequence (looked up): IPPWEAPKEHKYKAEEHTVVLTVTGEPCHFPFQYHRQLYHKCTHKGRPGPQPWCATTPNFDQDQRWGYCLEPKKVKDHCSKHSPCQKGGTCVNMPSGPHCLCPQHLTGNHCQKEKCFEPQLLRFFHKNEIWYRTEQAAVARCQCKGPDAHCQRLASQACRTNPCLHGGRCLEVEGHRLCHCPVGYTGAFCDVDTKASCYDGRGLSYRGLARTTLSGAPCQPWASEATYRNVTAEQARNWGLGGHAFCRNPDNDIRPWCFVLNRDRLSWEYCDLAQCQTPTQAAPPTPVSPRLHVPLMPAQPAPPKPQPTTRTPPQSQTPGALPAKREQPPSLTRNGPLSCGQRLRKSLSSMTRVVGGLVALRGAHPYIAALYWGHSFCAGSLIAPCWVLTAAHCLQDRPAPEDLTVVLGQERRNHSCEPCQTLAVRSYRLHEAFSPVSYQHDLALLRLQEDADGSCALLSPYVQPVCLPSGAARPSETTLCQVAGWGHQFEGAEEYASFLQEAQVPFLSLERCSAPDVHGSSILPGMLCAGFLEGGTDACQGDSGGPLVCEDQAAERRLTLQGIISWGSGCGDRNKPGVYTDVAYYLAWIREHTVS

β2-glycoprotein I = biological target: T6, β2-glycoprotein I (UniProt P02749 20-345); test: as above
T6 construct: also called B2-glycoprotein I; β2GPI
T6 sequence (looked up): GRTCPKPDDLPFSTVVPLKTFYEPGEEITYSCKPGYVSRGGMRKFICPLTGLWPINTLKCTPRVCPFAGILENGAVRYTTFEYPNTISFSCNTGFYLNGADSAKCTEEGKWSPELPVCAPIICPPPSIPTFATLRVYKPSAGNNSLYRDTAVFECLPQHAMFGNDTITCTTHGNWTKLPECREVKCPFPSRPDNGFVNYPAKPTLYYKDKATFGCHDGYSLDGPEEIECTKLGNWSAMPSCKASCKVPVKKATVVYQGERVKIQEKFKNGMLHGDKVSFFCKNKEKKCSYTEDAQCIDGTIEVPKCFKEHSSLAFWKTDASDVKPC

[10] = biological target: T2, prothrombin variant S91A/Y93A; test: SPR, second set, calculated from Kd
[11] = biological target: T3, kringle-1 of human prothrombin (amino …); test: SPR, second set, calculated from Kd
[12] = biological target: T4, human prothrombin wild-type; test: SPR, second set, calculated from Kd
[13] = biological target: T4, human prothrombin wild-type; test: SPR, POmAb immobilised; prothrombin with 200 µM argatroban (open form)
[14] = biological target: T2, prothrombin variant S91A/Y93A; test: SPR, POmAb immobilised
[15] = biological target: T2, prothrombin variant S91A/Y93A; test: SPR, POmAb immobilised on CM5, 1:1 model, 25 C; SPR, first set, 20 mM Tris pH 7.4, 25 C: weak binding with fast dissociation
[16] = biological target: T3, kringle-1 of human prothrombin (amino …); test: SPR, POmAb immobilised on CM5, 1:1 model, 25 C
[17] = biological target: T4, human prothrombin wild-type; test: SPR, POmAb immobilised on CM5, 1:1 model, 25 C
[18] = biological target: T2, prothrombin variant S91A/Y93A; test: SPR, POmAb immobilised, second set, HEPES buffer, 25 C
[19] = biological target: T3, kringle-1 of human prothrombin (amino …); test: as above
[20] = biological target: T4, human prothrombin wild-type; test: as above
[21] = biological target: T2, prothrombin variant S91A/Y93A; test: SPR, POmAb immobilised, second set, HEPES buffer, 25 C; SPR, second set, 20 mM HEPES pH 7.4, 25 C: weak binding with fast dissociation
[22] = biological target: T4, human prothrombin wild-type; test: SPR, second set, calculated from Kd; prothrombin with argatroban
[23] = biological target: T2, prothrombin variant S91A/Y93A; test: SPR, calculated from Kd; SPR, first set, Tris pH 7.4; ΔG calculated from Kd
[24] = biological target: T4, human prothrombin wild-type; test: SPR, POmAb immobilised, second set; prothrombin with argatroban (open form)

Chain of tissue plasminogen activator (P00750 36-562): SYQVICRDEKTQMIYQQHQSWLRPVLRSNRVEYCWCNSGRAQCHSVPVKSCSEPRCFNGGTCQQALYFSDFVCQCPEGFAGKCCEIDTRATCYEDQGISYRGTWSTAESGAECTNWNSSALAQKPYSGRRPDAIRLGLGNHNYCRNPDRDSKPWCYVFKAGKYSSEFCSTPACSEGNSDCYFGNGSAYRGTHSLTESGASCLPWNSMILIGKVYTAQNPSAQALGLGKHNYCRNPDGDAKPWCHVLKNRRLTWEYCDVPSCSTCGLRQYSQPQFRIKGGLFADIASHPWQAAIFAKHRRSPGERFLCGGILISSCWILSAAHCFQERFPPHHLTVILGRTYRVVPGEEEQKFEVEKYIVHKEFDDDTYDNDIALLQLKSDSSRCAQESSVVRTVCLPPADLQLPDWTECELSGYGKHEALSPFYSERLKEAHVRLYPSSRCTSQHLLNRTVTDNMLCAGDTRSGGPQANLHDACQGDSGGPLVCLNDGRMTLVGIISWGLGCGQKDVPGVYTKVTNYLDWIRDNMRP
Chain of plasminogen (P00747 20-810 limits assumed): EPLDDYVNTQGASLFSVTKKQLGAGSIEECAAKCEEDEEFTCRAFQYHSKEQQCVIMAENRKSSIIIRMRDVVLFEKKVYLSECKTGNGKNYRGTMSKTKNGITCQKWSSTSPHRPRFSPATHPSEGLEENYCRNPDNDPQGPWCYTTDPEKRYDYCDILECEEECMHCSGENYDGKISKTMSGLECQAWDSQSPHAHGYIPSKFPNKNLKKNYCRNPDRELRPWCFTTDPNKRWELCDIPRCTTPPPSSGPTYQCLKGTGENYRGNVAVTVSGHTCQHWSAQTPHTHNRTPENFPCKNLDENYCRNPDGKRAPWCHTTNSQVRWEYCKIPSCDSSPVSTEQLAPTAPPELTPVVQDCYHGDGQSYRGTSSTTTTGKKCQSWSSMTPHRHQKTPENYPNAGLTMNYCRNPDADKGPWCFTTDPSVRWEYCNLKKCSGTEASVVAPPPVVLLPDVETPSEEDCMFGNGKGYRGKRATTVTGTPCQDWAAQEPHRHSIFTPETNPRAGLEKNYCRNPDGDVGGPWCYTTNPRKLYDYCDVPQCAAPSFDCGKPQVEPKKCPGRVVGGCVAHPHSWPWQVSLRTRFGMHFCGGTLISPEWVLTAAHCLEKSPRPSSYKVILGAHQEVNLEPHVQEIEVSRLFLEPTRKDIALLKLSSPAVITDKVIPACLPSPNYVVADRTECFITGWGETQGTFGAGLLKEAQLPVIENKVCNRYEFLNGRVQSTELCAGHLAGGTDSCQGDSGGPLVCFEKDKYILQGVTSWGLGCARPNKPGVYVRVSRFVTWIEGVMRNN

binding result [1]: no binding | EC50 [2]: 0.038 µg/mL | EC50 [3]: 0.038 µg/mL | EC50 [4]: 0.031 µg/mL
B1: 5B10 monoclonal antibody (antibody, V domains shown)
VH: QIQLVQSGPELKKPGETVKISCKASGYTFTNYGMNWVKQAPGKGLKWMGWINTYTGEPTYADDFKGRFAFSLETSASTAYLQINNLKNEDMATYFCARGGYYYGNNYEAYWGQGTLVTVSA
VL: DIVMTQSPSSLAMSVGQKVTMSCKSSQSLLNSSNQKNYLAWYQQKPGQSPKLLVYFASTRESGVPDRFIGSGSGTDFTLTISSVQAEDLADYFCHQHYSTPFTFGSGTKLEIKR
notes: also called clone 5B10

ΔG [5]: -11.5 kcal/mol | ΔG [6]: -11.7 kcal/mol | ΔG [7]: -11.6 kcal/mol | binding result (plasminogen): no binding (tested: 50 µg/ml) | binding result [8]: no binding | binding result [9]: no binding (tested: 50 µg/ml) | binding result (factor XII): no binding (tested: 50 µg/ml) | binding result (β2-glycoprotein I): no binding (tested: 50 µg/ml) | ΔG [10]: -8.2 kcal/mol | ΔG [11]: -11.3 kcal/mol | ΔG [12]: -10.5 kcal/mol | Kd [13]: 2.98 nM | koff [13]: 0.00012 s⁻¹ | kon [13]: 40300 M⁻¹ s⁻¹ | fold change of dissociation rate against wild-type prothrombin [14]: ~1000 fold | EC50 [2]: 0.301 µg/mL | EC50 [3]: 0.02 µg/mL | EC50 [4]: 0.013 µg/mL | Kd [15]: 12000 nM | koff [15]: 0.29 s⁻¹ | kon [15]: 24200 M⁻¹ s⁻¹ | Kd [16]: 3.7 nM | koff [16]: 0.00027 s⁻¹ | kon [16]: 69100 M⁻¹ s⁻¹ | Kd [17]: 2.5 nM | koff [17]: 0.00013 s⁻¹ | kon [17]: 52000 M⁻¹ s⁻¹ | Kd [18]: 1010 nM | Kd [19]: 5.33 nM | koff [19]: 0.000314 s⁻¹ | kon [19]: 58900 M⁻¹ s⁻¹ | Kd [20]: 19.2 nM | koff [20]: 0.000122 s⁻¹ | kon [20]: 6350 M⁻¹ s⁻¹ | koff [21]: 0.0702 s⁻¹ | kon [21]: 69600 M⁻¹ s⁻¹ | ΔG [22]: -11.7 kcal/mol | ΔG [23]: -6.7 kcal/mol | Kd [24]: 2.59 nM | koff [24]: 9.49e-05 s⁻¹ | kon [24]: 36600 M⁻¹ s⁻¹
B2: POmAb (Prothrombin Open monoclonal Antibody) (antibody, mouse IgG1, kappa, V domains shown)
VH: EVHLVESGGGLVKPGGSLKLSCAASGFTFSSYYMYWVRQTPEKRLEWVATISNGGIYTYYLDSVRGRFTISRDNAKNILYLQMSGLSSADSAIYYCTRDGERQGAMDYWGQGTSVTVSS
VL: QIVLTQSPAIMSVSLGERVTMTCIVSSSVSSTYLHWYQQKPGSSPKLWIYSSSNLASGVPTRFSGSGSGTSHSLTISSMEAEDAAAYYCQLYRRSPLTFGAGTKLELKR
notes: also called POmAb IgG; IgG POmAb
